Reference: PMC11578894
pKd: −log10 of the molar value.

Biological target: His6–Gp54^Bas11 (phage Bas11)
Assay: ITC; CapRel^SJ46 in the syringe at 200 µM titrated into Gp54^Bas11 in the cell at 10 µM (Gp54^Bas11(G24D) was used at 260 µM); 30 °C; 50 mM HEPES pH 7.5, 500 mM KCl, 500 mM NaCl, 2 mM MgCl2, 1 mM TCEP

His6–MBP–CapRel^SJ46 (natural protein)
pKd: 6.10 | stoichiometry N: 1
